US20190233493A1 (Sanofi, published 2019)
Each block holds one binder with its values, some of them ahead of it. *1 amine or outer side, *2 acyl side, *3 side chain or, on linkers, in order; H or OH if unused. Primed or numbered codes have the meaning given here. Side-chain parts run from the residue outwards. [ ]: non-standard residue; d: D form. The star is where a group is joined. TTDS″ = 4-[3-[2-[2-(3-aminopropoxy)ethoxy]ethoxy]propylamino]-4-oxo-butanoyl; TtdDga = O=C(COCC(=O)[*:2])NCCCOCCOCCOCCCN[*:1]; Docosanoyl = CCCCCCCCCCCCCCCCCCCCCC(=O)*; Arachidoyl = CCCCCCCCCCCCCCCCCCCC(=O)*; Heptadecanoyl = CCCCCCCCCCCCCCCCC(=O)*; γGlu = O=C(O)[C@H](CCC(=O)[*:2])N[*:1]; Pentadecanoyl = CCCCCCCCCCCCCCC(=O)*; Stearoyl = CCCCCCCCCCCCCCCCCC(=O)*; Palmitoyl = CCCCCCCCCCCCCCCC(=O)*; Myristoyl = CCCCCCCCCCCCCC(=O)*; αMeK = C[C@](N)(CCCCN)C(=O)O; Nle = CCCC[C@H](N)C(=O)O; PEG2′ = PEG2 spacer unit; Aib = CC(C)(N)C(=O)O

Target: T1, RXFP1 receptor (UniProt Q9HBX9 1-757, limits assumed)
T1 sequence (looked up): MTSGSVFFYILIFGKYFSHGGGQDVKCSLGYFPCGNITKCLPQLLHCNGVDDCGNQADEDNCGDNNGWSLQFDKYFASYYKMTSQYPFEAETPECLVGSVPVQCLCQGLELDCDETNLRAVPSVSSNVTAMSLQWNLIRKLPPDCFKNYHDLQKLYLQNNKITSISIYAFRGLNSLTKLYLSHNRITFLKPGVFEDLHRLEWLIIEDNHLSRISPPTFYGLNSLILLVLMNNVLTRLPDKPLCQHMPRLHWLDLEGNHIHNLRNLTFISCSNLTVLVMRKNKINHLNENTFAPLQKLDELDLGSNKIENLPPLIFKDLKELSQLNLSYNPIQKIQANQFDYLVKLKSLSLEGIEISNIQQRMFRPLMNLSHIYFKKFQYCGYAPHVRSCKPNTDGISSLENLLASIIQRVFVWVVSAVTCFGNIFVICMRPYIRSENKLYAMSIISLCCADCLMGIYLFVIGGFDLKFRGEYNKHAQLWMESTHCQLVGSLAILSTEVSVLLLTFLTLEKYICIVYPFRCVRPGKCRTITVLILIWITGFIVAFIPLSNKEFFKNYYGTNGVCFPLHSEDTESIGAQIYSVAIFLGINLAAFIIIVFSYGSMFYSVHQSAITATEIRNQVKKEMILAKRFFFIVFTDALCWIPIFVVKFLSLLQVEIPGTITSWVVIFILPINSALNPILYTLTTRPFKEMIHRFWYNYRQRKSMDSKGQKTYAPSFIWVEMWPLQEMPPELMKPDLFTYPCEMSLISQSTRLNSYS
Assay: cell-based or functional assay

EMax, OVCAR 5 cells (cAMP): 88%
Binder: Ac-LEGREKVRAQI[Aib][Aib]EG[Nle]STWS[Aib]RKKK([PEG2′-PEG2′-PEG2′-γGlu-γGlu-γGlu-Stearoyl])-NH2 [peptide of SEQ ID NO: 174]

EC50 (nM), OVCAR 5 cells (cAMP): 17.6 nM | EMax, OVCAR 5 cells (cAMP): 93%
Binder: Ac-LEGREKVRAK(Ac)I[Aib][Aib]EG[Nle]STWS[Aib]RKK(Ac)K([PEG2′-PEG2′-PEG2′-γGlu-γGlu-γGlu-Myristoyl])-NH2 [peptide of SEQ ID NO: 178]

EC50 (nM), OVCAR 5 cells (cAMP): 0.56 nM | EMax, OVCAR 5 cells (cAMP): 95%
Binder: Ac-LEGREKVRAK(Ac)I[Aib][Aib]EG[Nle]STFS[αMeK]RAK(Ac)[PEG2′][PEG2′][PEG2′][PEG2′]K([γGlu-γGlu-γGlu-γGlu-Myristoyl])-NH2 [peptide of SEQ ID NO: 172]

EC50 (nM), OVCAR 5 cells (cAMP): 2.21 nM | EMax, OVCAR 5 cells (cAMP): 87%
B1: peptide of SEQ ID NO: 175 (peptide)
peptide: Ac-LEGREKVRAK(Ac)I[Aib][Aib]EG[Nle]STWS[Aib]RKK(Ac)[TtdDga]K([γGlu-γGlu-γGlu-Palmitoyl])-NH2
SMILES: CCCCCCCCCCCCCCCC(=O)N[C@@H](CCC(=O)N[C@@H](CCC(=O)N[C@@H](CCC(=O)NCCCC[C@H](NC(=O)COCC(=O)NCCCOCCOCCOCCCNC(=O)[C@H](CCCCNC(C)=O)NC(=O)[C@H](CCCCN)NC(=O)[C@H](CCCNC(=N)N)NC(=O)C(C)(C)NC(=O)[C@H](CO)NC(=O)[C@H](Cc1c[nH]c2ccccc12)NC(=O)[C@@H](NC(=O)[C@H](CO)NC(=O)[C@H](CCCC)NC(=O)CNC(=O)[C@H](CCC(=O)O)NC(=O)C(C)(C)NC(=O)C(C)(C)NC(=O)[C@@H](NC(=O)[C@H](CCCCNC(C)=O)NC(=O)[C@H](C)NC(=O)[C@H](CCCNC(=N)N)NC(=O)[C@@H](NC(=O)[C@H](CCCCN)NC(=O)[C@H](CCC(=O)O)NC(=O)[C@H](CCCNC(=N)N)NC(=O)CNC(=O)[C@H](CCC(=O)O)NC(=O)[C@H](CC(C)C)NC(C)=O)C(C)C)[C@@H](C)CC)[C@@H](C)O)C(N)=O)C(=O)O)C(=O)O)C(=O)O

EC50 (nM), OVCAR 5 cells (cAMP): 0.19 nM | EMax, OVCAR 5 cells (cAMP): 85%
Binder: Ac-LEGREKVRAK(Ac)I[Aib][Aib]EG[Nle]STWS[Aib]RKK(Ac)K([PEG2′-PEG2′-PEG2′-γGlu-γGlu-γGlu-Docosanoyl])-NH2 [peptide of SEQ ID NO: 173]

EC50 (nM), OVCAR 5 cells (cAMP): 3 nM | EMax, OVCAR 5 cells (cAMP): 90%
B3: peptide of SEQ ID NO: 176 (peptide)
peptide: Ac-LEGREKVRAK(Ac)I[Aib][Aib]EGQSTWS[Aib]RKK(Ac)[TtdDga]K([γGlu-γGlu-γGlu-Palmitoyl])-NH2
SMILES: CCCCCCCCCCCCCCCC(=O)N[C@@H](CCC(=O)N[C@@H](CCC(=O)N[C@@H](CCC(=O)NCCCC[C@H](NC(=O)COCC(=O)NCCCOCCOCCOCCCNC(=O)[C@H](CCCCNC(C)=O)NC(=O)[C@H](CCCCN)NC(=O)[C@H](CCCNC(=N)N)NC(=O)C(C)(C)NC(=O)[C@H](CO)NC(=O)[C@H](Cc1c[nH]c2ccccc12)NC(=O)[C@@H](NC(=O)[C@H](CO)NC(=O)[C@H](CCC(N)=O)NC(=O)CNC(=O)[C@H](CCC(=O)O)NC(=O)C(C)(C)NC(=O)C(C)(C)NC(=O)[C@@H](NC(=O)[C@H](CCCCNC(C)=O)NC(=O)[C@H](C)NC(=O)[C@H](CCCNC(=N)N)NC(=O)[C@@H](NC(=O)[C@H](CCCCN)NC(=O)[C@H](CCC(=O)O)NC(=O)[C@H](CCCNC(=N)N)NC(=O)CNC(=O)[C@H](CCC(=O)O)NC(=O)[C@H](CC(C)C)NC(C)=O)C(C)C)[C@@H](C)CC)[C@@H](C)O)C(N)=O)C(=O)O)C(=O)O)C(=O)O

EC50 (nM), OVCAR 5 cells (cAMP): 1.5 nM | EMax, OVCAR 5 cells (cAMP): 91%
B4: peptide of SEQ ID NO: 177 (peptide)
peptide: Ac-LEGREKVRAQI[Aib][Aib]EGQSTWS[Aib]RKK(Ac)[TtdDga][TtdDga]K([γGlu-γGlu-γGlu-Palmitoyl])-NH2
SMILES: CCCCCCCCCCCCCCCC(=O)N[C@@H](CCC(=O)N[C@@H](CCC(=O)N[C@@H](CCC(=O)NCCCC[C@H](NC(=O)COCC(=O)NCCCOCCOCCOCCCNC(=O)COCC(=O)NCCCOCCOCCOCCCNC(=O)[C@H](CCCCNC(C)=O)NC(=O)[C@H](CCCCN)NC(=O)[C@H](CCCNC(=N)N)NC(=O)C(C)(C)NC(=O)[C@H](CO)NC(=O)[C@H](Cc1c[nH]c2ccccc12)NC(=O)[C@@H](NC(=O)[C@H](CO)NC(=O)[C@H](CCC(N)=O)NC(=O)CNC(=O)[C@H](CCC(=O)O)NC(=O)C(C)(C)NC(=O)C(C)(C)NC(=O)[C@@H](NC(=O)[C@H](CCC(N)=O)NC(=O)[C@H](C)NC(=O)[C@H](CCCNC(=N)N)NC(=O)[C@@H](NC(=O)[C@H](CCCCN)NC(=O)[C@H](CCC(=O)O)NC(=O)[C@H](CCCNC(=N)N)NC(=O)CNC(=O)[C@H](CCC(=O)O)NC(=O)[C@H](CC(C)C)NC(C)=O)C(C)C)[C@@H](C)CC)[C@@H](C)O)C(N)=O)C(=O)O)C(=O)O)C(=O)O

EC50 (nM), OVCAR 5 cells (cAMP): 0.18 nM | EMax, OVCAR 5 cells (cAMP): 83%
Binder: Ac-LEGREKVRAK(Ac)I[Aib][Aib]EG[Nle]STWS[Aib]RKK(Ac)K([PEG2′-PEG2′-PEG2′-γGlu-γGlu-γGlu-Arachidoyl])-NH2 [peptide of SEQ ID NO: 171]

EC50 (nM), OVCAR 5 cells (cAMP): 0.01 nM | EMax, OVCAR 5 cells (cAMP): 87%
Binder: Ac-LEGREKVRAK(Ac)I[Aib][Aib]EGQSTFS[αMeK]RAK(Ac)[PEG2′][PEG2′][PEG2′][PEG2′]K([γGlu-γGlu-γGlu-γGlu-Palmitoyl])-NH2 [peptide of SEQ ID NO: 170]

Continued, binder first:

Binder: Ac-LEGREKVRAK(Ac)I[Aib][Aib]EG[Nle]STWS[Aib]RKK(Ac)K([PEG2′-PEG2′-PEG2′-γGlu-γGlu-γGlu-Pentadecanoyl])-NH2 [peptide of SEQ ID NO: 163]
EC50 (nM), OVCAR 5 cells (cAMP): 5.3 nM | EMax, OVCAR 5 cells (cAMP): 87%

B2: peptide of SEQ ID NO: 18 (peptide)
peptide: Ac-LEGREKVRAK(Ac)I[Aib][Aib]EG[Nle]STWS[Aib]RKK(Ac)[TtdDga]K([γGlu-γGlu-γGlu-Stearoyl])-NH2
SMILES: CCCCCCCCCCCCCCCCCC(=O)N[C@@H](CCC(=O)N[C@@H](CCC(=O)N[C@@H](CCC(=O)NCCCC[C@H](NC(=O)COCC(=O)NCCCOCCOCCOCCCNC(=O)[C@H](CCCCNC(C)=O)NC(=O)[C@H](CCCCN)NC(=O)[C@H](CCCNC(=N)N)NC(=O)C(C)(C)NC(=O)[C@H](CO)NC(=O)[C@H](Cc1c[nH]c2ccccc12)NC(=O)[C@@H](NC(=O)[C@H](CO)NC(=O)[C@H](CCCC)NC(=O)CNC(=O)[C@H](CCC(=O)O)NC(=O)C(C)(C)NC(=O)C(C)(C)NC(=O)[C@@H](NC(=O)[C@H](CCCCNC(C)=O)NC(=O)[C@H](C)NC(=O)[C@H](CCCNC(=N)N)NC(=O)[C@@H](NC(=O)[C@H](CCCCN)NC(=O)[C@H](CCC(=O)O)NC(=O)[C@H](CCCNC(=N)N)NC(=O)CNC(=O)[C@H](CCC(=O)O)NC(=O)[C@H](CC(C)C)NC(C)=O)C(C)C)[C@@H](C)CC)[C@@H](C)O)C(N)=O)C(=O)O)C(=O)O)C(=O)O
EC50 (nM), OVCAR 5 cells (cAMP): 0.41 nM | EMax, OVCAR 5 cells (cAMP): 83%

Binder: Ac-LEGREKVRAK(Ac)I[Aib][Aib]EG[Nle]STWS[αMeK]RKK(Ac)[PEG2′][PEG2′][PEG2′]K([γGlu-γGlu-γGlu-γGlu-Palmitoyl])-NH2 [peptide of SEQ ID NO: 17]
EC50 (nM), OVCAR 5 cells (cAMP): 0.17 nM | EMax, OVCAR 5 cells (cAMP): 95%

Binder: Ac-LEGREKVRAK(Ac)I[Aib][Aib]EG[Nle]STWS[Aib]RKK(Ac)K([PEG2′-PEG2′-γGlu-γGlu-PEG2′-γGlu-Palmitoyl])-NH2 [peptide of SEQ ID NO: 165]
EC50 (nM), OVCAR 5 cells (cAMP): 0.38 nM | EMax, OVCAR 5 cells (cAMP): 105%

Binder: Ac-LEGREKVRAK(Ac)I[Aib][Aib]EG[Nle]STWS[Aib]RKK(Ac)K([PEG2′-PEG2′-PEG2′-γGlu-γGlu-γGlu-Heptadecanoyl])-NH2 [peptide of SEQ ID NO: 164]
EC50 (nM), OVCAR 5 cells (cAMP): 0.79 nM | EMax, OVCAR 5 cells (cAMP): 93%

B5: peptide of SEQ ID NO: 168 (peptide)
peptide: Ac-LEGREKVRAK(Ac)I[Aib][Aib]EG[Nle]STFSXRAK(Ac)[PEG2′][PEG2′][PEG2′][PEG2′][γGlu][γGlu]K([γGlu-γGlu-Pentadecanoyl])-NH2
modifications: not fully specified (some residues); printed as Ac-L-E-G-R-E-K-V-R-A-K(Ac)-I-Aib-Aib-E-G-Nle-S-T-F-S-Mly-R-A-K(Ac)-PEG2-PEG2-PEG2-PEG2-gE-gE-K(gE-gE-Penta)-NH2
EC50 (nM), OVCAR 5 cells (cAMP): 0.06 nM | EMax, OVCAR 5 cells (cAMP): 91%

Binder: Ac-LEGREKVRAK(Ac)I[Aib][Aib]EG[Nle]STFS[αMeK]RAK(Ac)[PEG2′][PEG2′][PEG2′][PEG2′]K([γGlu-γGlu-γGlu-γGlu-Pentadecanoyl])-NH2 [peptide of SEQ ID NO: 167]
EC50 (nM), OVCAR 5 cells (cAMP): 0.05 nM | EMax, OVCAR 5 cells (cAMP): 93%

Binder: Ac-LEGREKVRAK(Ac)I[Aib][Aib]EG[Nle]STWS[Aib]RKK(Ac)K([TTDS″-TTDS″-γGlu-γGlu-γGlu-Palmitoyl])-NH2 [peptide of SEQ ID NO: 166]
EC50 (nM), OVCAR 5 cells (cAMP): 0.26 nM | EMax, OVCAR 5 cells (cAMP): 92%
